Reference: patent US20240132593A1

What was measured:
[1] = biological target: 2.1C-VISTA-ECD-Fc (human); test: ELISA on plate-bound VISTA-ECD-Fc
4.1-VISTA-ECD-Fc (human) = test: ELISA on plate-bound VISTA-ECD-Fc
5.1-VISTA-ECD-Fc (human) = test: ELISA on plate-bound VISTA-ECD-Fc
RFQ-VISTA-ECD-Fc (human) = test: ELISA, 10 ug/mL antibody on plate-bound mutant VISTA-Fc
RFQ-VISTA-ECD-Fc (human), sequence (chain, as listed by the source): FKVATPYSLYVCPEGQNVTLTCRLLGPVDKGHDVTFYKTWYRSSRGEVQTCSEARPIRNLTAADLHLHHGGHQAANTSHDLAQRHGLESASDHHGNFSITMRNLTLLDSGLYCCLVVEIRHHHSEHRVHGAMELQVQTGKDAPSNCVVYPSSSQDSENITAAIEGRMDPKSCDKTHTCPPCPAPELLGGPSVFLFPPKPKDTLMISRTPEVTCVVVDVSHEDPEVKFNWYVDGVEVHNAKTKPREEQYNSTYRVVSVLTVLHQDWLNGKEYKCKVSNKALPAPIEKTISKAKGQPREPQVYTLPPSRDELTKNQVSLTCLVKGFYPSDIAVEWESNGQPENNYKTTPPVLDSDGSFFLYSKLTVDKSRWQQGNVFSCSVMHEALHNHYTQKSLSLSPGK

5.1-VISTA-ECD-Fc (human), sequence (chain, as listed by the source): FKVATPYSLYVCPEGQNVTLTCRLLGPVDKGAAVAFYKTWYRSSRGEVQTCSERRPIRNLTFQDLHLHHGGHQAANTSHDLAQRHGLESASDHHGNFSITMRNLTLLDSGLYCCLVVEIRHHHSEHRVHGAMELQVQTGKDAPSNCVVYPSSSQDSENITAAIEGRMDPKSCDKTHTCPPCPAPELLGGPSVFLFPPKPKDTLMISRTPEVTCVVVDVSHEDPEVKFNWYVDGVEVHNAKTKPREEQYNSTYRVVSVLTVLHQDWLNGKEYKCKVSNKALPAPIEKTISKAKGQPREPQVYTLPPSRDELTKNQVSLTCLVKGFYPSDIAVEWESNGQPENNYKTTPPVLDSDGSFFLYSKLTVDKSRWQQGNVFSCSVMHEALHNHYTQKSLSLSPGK
4.1-VISTA-ECD-Fc (human), sequence (chain, as listed by the source): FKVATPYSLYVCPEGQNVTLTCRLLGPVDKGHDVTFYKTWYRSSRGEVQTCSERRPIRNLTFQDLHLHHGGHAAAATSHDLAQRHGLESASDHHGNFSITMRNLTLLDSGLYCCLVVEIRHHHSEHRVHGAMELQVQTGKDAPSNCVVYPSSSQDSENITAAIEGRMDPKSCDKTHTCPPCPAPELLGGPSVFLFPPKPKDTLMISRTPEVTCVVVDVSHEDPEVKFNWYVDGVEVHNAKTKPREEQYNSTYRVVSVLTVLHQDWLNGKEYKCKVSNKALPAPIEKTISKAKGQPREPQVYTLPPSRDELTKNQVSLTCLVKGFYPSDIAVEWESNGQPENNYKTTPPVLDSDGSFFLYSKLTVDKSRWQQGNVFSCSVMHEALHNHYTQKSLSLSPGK
2.1C-VISTA-ECD-Fc (human), sequence (chain, as listed by the source): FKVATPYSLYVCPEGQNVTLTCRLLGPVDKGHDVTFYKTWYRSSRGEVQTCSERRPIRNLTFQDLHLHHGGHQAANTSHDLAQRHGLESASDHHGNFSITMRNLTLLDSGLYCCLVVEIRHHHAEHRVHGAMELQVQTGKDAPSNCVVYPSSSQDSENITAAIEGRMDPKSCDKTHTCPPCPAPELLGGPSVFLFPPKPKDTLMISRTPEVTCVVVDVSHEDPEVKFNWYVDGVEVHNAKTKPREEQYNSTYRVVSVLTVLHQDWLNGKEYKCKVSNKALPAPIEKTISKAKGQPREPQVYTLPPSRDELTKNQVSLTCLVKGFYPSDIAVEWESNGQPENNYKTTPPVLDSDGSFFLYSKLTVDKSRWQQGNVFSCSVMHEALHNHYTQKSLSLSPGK

EC50 [1]: 100 µg/mL | EC50 (4.1-VISTA-ECD-Fc (human)): 100 µg/mL | EC50 (5.1-VISTA-ECD-Fc (human)): 100 µg/mL | ELISA Abs 450 nm (RFQ-VISTA-ECD-Fc (human)): 0.019 Abs 450 nm
Substance: IgG1 (antibody)
